These results are taken from article PMC5683061.

Experiment [1] has as its target Ferredoxin:NADP+ oxidoreductase (FNR), C. reinhardtii, recombinant soluble (C. reinhardtii) (UniProt P53991).
Experiment [2] concerns the target Ferredoxin:NADP+ oxidoreductase (FNR), endogenous, complex-associated (C. reinhardtii (endogenous in strain cc124)) (UniProt P53991).

Turning to “Ferredoxin 1 (FDX1), C. reinhardtii (natural protein)”, the light-dependent NADPH production rate with FDX1 relative to FDX2 (FDX1/FDX2), PSI fractions with added soluble FNR (0.5 µM), 4 µM FDX in experiment [1] was 2.6 fold. The substance further displayed a light-dependent NADPH production rate with FDX1 relative to FDX2 (FDX1/FDX2), PSI–FNR fractions (complex-associated FNR), 4 µM FDX in experiment [2] of 23 fold.
